According to publication PMC5300874:

Legend:
[1] = target: (His)Rpo3ΔFeS2 (Methanosarcina acetivorans) (UniProt P0CG28); experiment: pull-down; merodiploid M. acetivorans strains (native Rpo3 also present), tetracycline-induced; (His)Rpo3 variant held on Ni2+-agarose from lysate, anaerobic; eluates normalised to 15 ng (His)Rpo3; western blot for Rpo11, Rpo2′, Rpo1″
[2] = target: (His)Rpo3, N-terminally histidine-tagged wild-type Rpo3 expressed in Methanosarcina acetivorans (Methanosarcina acetivorans) (UniProt P0CG28)
[3] = target: (His)Rpo3ΔD3 (Methanosarcina acetivorans) (UniProt P0CG28)
[4] = target: (His)Rpo3ΔFeS1 (Methanosarcina acetivorans) (UniProt P0CG28)
[5] = target: (His)Rpo3mFeS2 (Methanosarcina acetivorans) (UniProt P0CG28)

Row | percent less in the eluate than with (His)Rpo3 (band intensity) [1] [% less] | nonspecific transcription (RNAP) activity of the imidazole eluate, gene replacement strain DJL51 (counts per min ng^-1 Rpo3) [2] | nonspecific transcription (RNAP) activity of the imidazole eluate, gene replacement strain DJL54 (counts per min ng^-1 Rpo3) [3] | nonspecific transcription (RNAP) activity of the imidazole eluate, gene replacement strain DJL52 (counts per min ng^-1 Rpo3) [4] | nonspecific transcription (RNAP) activity of the imidazole eluate, gene replacement strain DJL55 (counts per min ng^-1 Rpo3) [5] | Substance
1 | 50 |  |  |  |  | Rpo2′ (RpoB′), catalytic subunit of Methanosarcina acetivorans RNA polymerase (from UniProt Q8TRB6 1-604) (natural protein)
2 |  | 210 | 90 | 33 | 94 | Rpo1″ (RpoA″), catalytic subunit of Methanosarcina acetivorans RNA polymerase (natural protein)
